Assay results from article PMC8724738, “Exon‐independent recruitment of SRSF1 is mediated by U1 snRNP stem‐loop 3”.

Experiments:
[1] = target: FUS RRM (UniProt P35637 285-371); test: NMR; 30 C; NMR/ITC: 10 mM NaPO4 pH 7.0, 50 mM L-Arg, 50 mM L-Glu, 5 mM DTT (TCEP for ITC); NMR 313 K (FUS 30 C), ITC 27 C; single-molecule: 50% nuclear extract, 3.2 mM MgCl2, 50 mM K-glutamate, 20 mM HEPES pH 7.5, 1.5 mM ATP, 30 C; conditions: protein: recombinant; hairpin
[2] = target: GB1-SRSF1ΔRS (UniProt Q07955 1-197, del198-248); test: ITC; 27 C; NMR buffer with TCEP; NMR/ITC: 10 mM NaPO4 pH 7.0, 50 mM L-Arg, 50 mM L-Glu, 5 mM DTT (TCEP for ITC); NMR 313 K (FUS 30 C), ITC 27 C; single-molecule: 50% nuclear extract, 3.2 mM MgCl2, 50 mM K-glutamate, 20 mM HEPES pH 7.5, 1.5 mM ATP, 30 C; conditions: protein: recombinant; hairpin
Sequence of GB1-SRSF1ΔRS (Q07955 1-197, stated change not applied): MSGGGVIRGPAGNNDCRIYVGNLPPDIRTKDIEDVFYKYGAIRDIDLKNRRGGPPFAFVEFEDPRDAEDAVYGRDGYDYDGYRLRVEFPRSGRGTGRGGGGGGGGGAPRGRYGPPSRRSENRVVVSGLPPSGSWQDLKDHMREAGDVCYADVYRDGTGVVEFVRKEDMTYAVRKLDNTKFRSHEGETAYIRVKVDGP

Sequence of FUS RRM (P35637 285-371): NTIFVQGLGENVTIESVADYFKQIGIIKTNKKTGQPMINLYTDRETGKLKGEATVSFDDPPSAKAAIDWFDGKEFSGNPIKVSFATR

Binder: GCGAUUUCCCCAAAUGUGGGAAACUCGC (structured_RNA) [U1 snRNA stem-loop 3 (SL3) wild type]
- binding result [1]: binds
- Kd [2]: 10.9 ± 2.8 µM
